Target: the molecule itself
Assay: crystal structure; sitting-drop vapor diffusion at 20 °C; optimized crystals from 2.4 M ammonium sulfate, 0.1 M citric acid pH 3.5; space group P3(1)21; 2.8 Å; apo form; dimer in the asymmetric unit

B1: Saccharomyces cerevisiae phosphoserine aminotransferase (enzyme, S. cerevisiae, UniProt P33330 1-395, looked up)
chain: MSLEREEPQHFGAGPAQMPTPVLQQAAKDLINFNDIGLGIGEISHRSKDATKVIEDSKKHLIELLNIPDTHEVFYLQGGGTTGFSSVATNLAAAYVGKHGKIAPAGYLVTGSWSQKSFEEAKRLHVPAEVIFNAKDYNNGKFGKIPDESLWEDKIKGKAFSYVYLCENETVHGVEWPELPKCLVNDPNIEIVADLSSDILSRKIDVSQYGVIMAGAQKNIGLAGLTLYIIKKSILKNISGASDETLHELGVPITPIAFDYPTVVKNNSAYNTIPIFTLHVMDLVFQHILKKGGVEAQQAENEEKAKILYEALDANSDFYNVPVDPKCRSKMNVVFTLKKDGLDDQFLKEAAARHLTGLKGHRSVGGFRASIYNALSVKAVQNLVDFIKEFAEKNA
notes: Phosphoserine aminotransferase (PSAT) of S. cerevisiae, encoded by SER1; full-length gene amplified from genomic DNA and cloned into pET28a; residues 1-395 (large domain 54-293, small domain 294-395); apo form without PLP; residues 1-53, 218-220 and 268-271 not modelled in the crystal structure; they may come from different strains; also called ScPSAT; PSAT; source: E. coli BL21 (DE3) Star, …
**Q.** B1 was tested. Which “stoichiometry N” value did it give?
**A.** 2
